The values that follow come from paper doi:10.1101/2022.05.03.490446 (bioRxiv, 2022).

Test [1] concerns the target T1, GroEL (E. coli, UniProt P0A6F5 1-548).
Test [2] addresses T1, GroEL. Put plainly: fluorescence polarisation + other fluorescence titration. (Polarisation of emitted light reports the rotation of a fluorescent probe.)
Test [3] has as its target T1, GroEL. As to the kind of experiment: atomic force microscopy.
Test [4] concerns the target T1, GroEL. As to the kind of experiment: SEC. (SEC sorts molecules by how far they enter the pores of the column.)
Test [5] deals with T1, GroEL. Put plainly: other fluorescence titration.

By Kd is commonly meant the free concentration of one partner at which half of the binding sites on the other are occupied at equilibrium, for simple one-to-one binding. Usually Ki stands for a dissociation constant, usually derived from enzyme kinetics or from competition with a known ligand. Read a high Ki as a looser hold on the target.

Like-named read-outs stand apart in the source and are kept apart here.

T1 sequence (P0A6F5 whole entry): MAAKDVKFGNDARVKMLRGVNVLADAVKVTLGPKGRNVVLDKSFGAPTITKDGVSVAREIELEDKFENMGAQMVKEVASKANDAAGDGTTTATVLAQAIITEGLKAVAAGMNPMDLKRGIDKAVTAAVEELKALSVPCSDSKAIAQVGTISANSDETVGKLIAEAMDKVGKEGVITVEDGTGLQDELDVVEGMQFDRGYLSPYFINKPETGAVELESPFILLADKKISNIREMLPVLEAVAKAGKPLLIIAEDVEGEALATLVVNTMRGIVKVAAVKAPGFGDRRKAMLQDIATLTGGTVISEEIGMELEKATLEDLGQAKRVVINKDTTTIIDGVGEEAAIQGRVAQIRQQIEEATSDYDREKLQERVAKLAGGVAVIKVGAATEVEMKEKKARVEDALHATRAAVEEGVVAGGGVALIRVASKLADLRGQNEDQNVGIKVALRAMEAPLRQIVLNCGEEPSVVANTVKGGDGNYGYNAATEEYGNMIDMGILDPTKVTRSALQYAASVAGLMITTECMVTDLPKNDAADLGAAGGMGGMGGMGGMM

With “fluorescein-labeled CnoX (from UniProt P77395 1-284) (natural protein)”, the dissociation constant Kd worked out at 350 nM with GroEL [1] and 310 nM with GroEL [2].
“CnoX (from UniProt P77395 1-284) (natural protein)” gave a specific binding force with GroEL [3] of 175 pN. Besides, the stoichiometry N (GroEL:CnoX molar ratio) with GroEL [4] came to 14.

B1: GroES (natural protein)
chain: MNIRPLHDRVIVKRKEVETKSAGGIVLTGSAAAKSTRGEVLAVGNGRILENGEVKPLDVKVGDIVIFNDGYGVKSEKIDNEEVLIMSESDILAIVEA
Turning to B1, in the test with GroEL [5], the Ki worked out at 47 nM.
